Source: publication PMC8481289 (2021)

Tests used:
UBA5 333–404 = UBA5 333–404 (human, UniProt Q9GZZ9 333-404); assay: ITC
UBA5 Y372A = UBA5 Y372A (human, UniProt Q9GZZ9 1-404, Y372A); assay: ITC
Chain of UBA5 Y372A (Q9GZZ9 whole entry Y372A): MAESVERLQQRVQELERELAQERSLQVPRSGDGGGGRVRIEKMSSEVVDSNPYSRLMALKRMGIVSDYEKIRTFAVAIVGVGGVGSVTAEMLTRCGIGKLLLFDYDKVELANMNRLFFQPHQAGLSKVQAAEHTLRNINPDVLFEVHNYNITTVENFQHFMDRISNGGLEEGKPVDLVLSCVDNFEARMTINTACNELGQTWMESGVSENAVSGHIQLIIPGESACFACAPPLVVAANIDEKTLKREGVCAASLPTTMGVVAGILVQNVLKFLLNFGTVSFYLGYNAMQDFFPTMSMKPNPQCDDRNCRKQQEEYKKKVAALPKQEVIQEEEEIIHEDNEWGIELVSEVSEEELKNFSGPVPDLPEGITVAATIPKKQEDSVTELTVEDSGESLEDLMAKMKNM

Chain of UBA5 333–404 (Q9GZZ9 333-404): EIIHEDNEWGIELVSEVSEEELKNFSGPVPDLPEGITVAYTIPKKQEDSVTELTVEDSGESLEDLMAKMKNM

Kd (UBA5 333–404): 2.5 µM
Kd (UBA5 Y372A): 1.9 µM
B1: UFC1 (WT) (enzyme)
chain: MADEATRRVVSEIPVLKTNAGPRDRELWVQRLKEEYQSLIRYVENNKNADNDWFRLESNKEGTRWFGKCWYIHDLLKYEFDIEFDIPITYPTTAPEIAVPELDGKTAKMYRGGKICLTDHFKPLWARNVPKFGLAHLMALGLGPWLAVEIPDLIQKGVIQHKEKCNQ
